The results in this text go back to patent publication US20230235058A1.

Assay [1] concerns the target full length human BTLA expressed on cells (human) (UniProt Q7Z6A9). The assay can be described thus: cell-based or functional assay.
Assay [2] addresses L48R (Mus musculus). The assay can be described thus: flow cytometry, GFP-positive transfected HEK-293T cells, fluorochrome-conjugated antibody at 10 ug/ml, Geo-mean relative to wild type. A general note: In flow cytometry, cells or beads pass a laser one at a time.
In assay [3] the target is human BTLA extracellular region / murine CD28 construct with K41E, on HEK-293T cells (human; mouse) (UniProt P31041). Described as above.
Assay [4] addresses human BTLA extracellular region / murine CD28 construct with Y39R, on HEK-293T cells (human; mouse) (UniProt P31041). Described as above.

human BTLA extracellular region / murine CD28 construct with Y39R, on HEK-293T cells (human; mouse), sequence (P31041 other isoform, or with tags, fused parts or gaps Y39R Y39R): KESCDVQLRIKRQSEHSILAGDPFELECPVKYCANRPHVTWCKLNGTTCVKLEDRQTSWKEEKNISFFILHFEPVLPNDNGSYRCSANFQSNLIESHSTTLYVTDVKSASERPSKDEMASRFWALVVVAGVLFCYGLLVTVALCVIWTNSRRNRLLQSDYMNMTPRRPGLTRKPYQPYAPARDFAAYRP
human BTLA extracellular region / murine CD28 construct with K41E, on HEK-293T cells (human; mouse), sequence (P31041 other isoform, or with tags, fused parts or gaps K41E K41E): as the sequence (P31041 other isoform, or with tags, fused parts or gaps Y39R Y39R) above, with R9Y, K11E counted along it

B1: 22B3 hIgG4PAA (antibody, from another filing, V domains shown)
VH: QVQLVQSGAEVKKPGASVKVSCKASGFSLSSYGVSWVRQAPGQGLEWMGAISYDGITYYASWAKSRVTMTRDTSTSTVYMELSSLRSEDTAVYYCARGDYYDDYVYVYALDIWGQGTLVTVSS
VL: EIVLTQSPGTLSLSPGERATLSCQASQSISTALAWYQQKPGQAPRLLIYAASTLASGIPDRFSGSGSGTDFTLTISRLEPEDFAVYYCQQGYSSSNLDNVFGGGTKVEIKR
For B1, in assay [1], the inhibition of NFkB signal, IC50 worked out at 3.8 nM and the maximal inhibition of NFkB signal was found to be 18%.

B2: 11.5.1 (antibody, V domains shown)
VH: EVQLQESGPSLVKPSQTLSLTCSVTGDSITSAYWNWIRKFPGNKLEYMGYISYSGSTYFNPSLKSRISITRNTSKNQYYLQLNSVTTEDTATYYCARSHYYGYYFDYWGHGTTLTVSS
VL: DIVLTQSPASLAVSLGQRATISCRASETIDSYGDSLMHWYQQKAGQPPKLLIYRASNLESGIPARFSGSGSRTDFTLTINPVEADDVATYYCQQTDEDPYTFGGGTKLEIK
For the molecule B2, the binding as % of binding to wild-type BTLA is 145% in assay [2], 1.8% in assay [3] and 0.76% in assay [4].

B3: 2.8.6 (antibody, V domains shown)
VH: QVQLKESGPGLVAPSQSLSITCTVSGFSLTTYGVHWVRQSPGKGLEWLGVMWPGGRTSYNPAPMSRLSISKDNSKSQVFLKMNSLQTDDTAMYYCVRGDYEYDYYAMDYWGQGTSVTVSS
VL: QIVLSQSPAILSASPGEKVTMTCRASSSVSYMHWYQQKPGSSPKPWIYATSNLASGVPARFSGSGSGTSYSLTISRMEAEDAATYYCHQWSSNPYTFGGGTKLEIK
As for B3, the binding as % of binding to wild-type BTLA in assay [2] worked out at 102%; in assay [3] it was 91.4%; in assay [4] it was 60%.
